# In paper PMC6831737:
# Target: CAP256 SU gp140 (soluble cleavage-independent HIV-1 subtype C Env gp140 antigen) (HIV-1 subtype C, CAP256 SU virus)
# Test: SEC + native gel or EMSA; GNL affinity-purified protein in PBS pH 7.4, fractionated on Superdex 200 HiLoad 16/600; pooled peaks resolved by BN-PAGE (NativePAGE 3-12% Bis-Tris) and stained with Coomassie
substance,measurement,value
CAP256 SU gp140 (soluble cleavage-independent HIV-1 subtype C Env gp140 antigen) (domain or fragment),stoichiometry N,3
